± gives the uncertainty stated by the source.
assay: abundance fitness (aPCA) (normalised: wild type 0, dead -1); higher = more abundant; growth selection in yeast, the domain comes from the species named; conditions: Homo sapiens

Substance	abundance fitness
Homeobox expressed in ES cells 1 A114T, Q9UBX0	0.493 ± 0.057
Homeobox expressed in ES cells 1 G134D, Q9UBX0	-0.02 ± 0.17
Homeobox expressed in ES cells 1 P111N, Q9UBX0	0.704 ± 0.15
Homeobox expressed in ES cells 1 N118Q, Q9UBX0	-0.35 ± 0.35
Homeobox expressed in ES cells 1 N130T, Q9UBX0	-0.144 ± 0.066
Homeobox expressed in ES cells 1 D140E, Q9UBX0	-0.047 ± 0.07
Homeobox expressed in ES cells 1 I154V, Q9UBX0	-0.028 ± 0.12
Homeobox expressed in ES cells 1 I152V, Q9UBX0	-0.315 ± 0.12
Homeobox expressed in ES cells 1 I120L, Q9UBX0	-0.192 ± 0.15
Homeobox expressed in ES cells 1 N125A, Q9UBX0	-0.36 ± 0.12
Homeobox expressed in ES cells 1 Q143M, Q9UBX0	-0.011 ± 0.19
Homeobox expressed in ES cells 1 K164W, Q9UBX0	-0.547 ± 0.16
Homeobox expressed in ES cells 1 D150A, Q9UBX0	0.089 ± 0.12
Homeobox expressed in ES cells 1 V122E, Q9UBX0	0.12 ± 0.15
Homeobox expressed in ES cells 1 R128A, Q9UBX0	-0.277 ± 0.16
Homeobox expressed in ES cells 1 D136F, Q9UBX0	0.211 ± 0.24
Homeobox expressed in ES cells 1 V129Q, Q9UBX0	0.143 ± 0.25
Homeobox expressed in ES cells 1 I135V, Q9UBX0	-0.069 ± 0.073
Homeobox expressed in ES cells 1 Q117L, Q9UBX0	-0.548 ± 0.16
Homeobox expressed in ES cells 1 C131H, Q9UBX0	0.419 ± 0.15

— the Human Domainome abundance scans (Beltran et al. 2025)
